Measurements from the supplement of paper PMC9170038.

Tested on: MS2 coat protein
Assay: apparent KD of MS2 coat protein; designed switch direction (-1 OFF switch, 1 ON switch): 1; higher = weaker reporter binding
In short: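 The apparent KD reported per design is the median over clusters of curve fits to normalised cluster fluorescence. The RNA switches were transcribed on Illumina chips by stalled E. coli RNA polymerase. SNAP-549-labelled MS2 coat protein was titrated from 0.7 or 1.5 nM, doubling up to 3 µM, in Tris-HCl pH 7.5 buffer containing KCl, MgCl2, BSA, DTT, tRNA and Tween-20, with no input, 200 uM small-molecule ligand, or an oligonucleotide input.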

[1] = Eterna round: R95, input ligand: microRNA oligo, concentration not stated
[2] = input ligand: microRNA oligo, concentration not stated
[3] = Eterna round: R95, input ligand: FMN 200 uM
[4] = Eterna round: R95, input ligand: none

| Sequence | apparent KD of MS2 coat protein [1] [nM] | apparent KD of MS2 coat protein (input ligand: FMN 200 uM) [nM] | apparent KD of MS2 coat protein [2] [nM] | apparent KD of MS2 coat protein (input ligand: none) [nM] | apparent KD of MS2 coat protein [3] [nM] | apparent KD of MS2 coat protein [4] [nM] |
| --- | --- | --- | --- | --- | --- | --- |
| AGCGGAUAACAGUAGGAUAUGGCCAACGCCACAUGAGGAUCACCCAUGUCGUACCGGCACCUGGACUAGAAGGACUGCCUCCCGC [Ariscedi] (puzzle: Same State 2) | 22.8 | – | – | – | – | – |
| AGCUAAAACGAAGGAUAUACAAACAUGAGGAUCACCCAUGUAUACAUGGUUUGUUGUGACCACAUGUAGAAGGUCGUACUAACA [SameState NG2 #18] (Eterna round: R96, puzzle: Same State NG 2) | – | 178 | 405 | 358 | – | – |
| AGCUAAAACGAAGGAUAUACAAACAUGAGGAUCACCCAUGUAUACAUGGUUUGUUGUGACUACAUGUAGAAGGUCGUACUAACA [SameState NG2 #17] (Eterna round: R96, puzzle: Same State NG 2) | – | 388 | 307 | 500 | – | – |
| AGCUAGUACCGAGGAUAUACAUACAUGAGGAUCACCCAUGUAUACAUGAAUUUAUGAGACUACAUGUAGAAGGCGGUACUAGCA [JL SSNG2 1.21] (Eterna round: R96, puzzle: Same State NG 2) | – | – | 40.1 | – | – | – |
| AGCUAGUACGAAGGAUAUACAAACAUGAGGAUCACCCAUGUAUACAUGGUUUAAUGAGACUACAUGUAGAAGGUCGUACUAGCA [SameState NG2 #13] (Eterna round: R96, puzzle: Same State NG 2) | – | 559 | 423 | 1030 | – | – |
| AGCUAGUACGAAGGAUAUACAAACAUGAGGAUCACCCAUGUAUACAUGGUUUGAUGAGACUACAUGUAGAAGGUCGUACUAGCA [SameState NG2 #14] (Eterna round: R96, puzzle: Same State NG 2) | – | – | 176 | – | – | – |
| AGCUAUCGAAAACGAUAGCAAAAGCAUGUACAUGAGGAUCACCCAUGUCAUGUACAAGCUUUUUGCUCGUCUUGAAA [Zipper 23 - 9] (Eterna round: R96, puzzle: Sensor for hsa-mir-208a) | – | 496 | 16.6 | 824 | – | – |
| AGCUAUCGAAAACGAUAGCAAAAGCAUGUACAUGAGGAUCACCCAUGUCAUGUACAAGCUUUUUGCUCGUCUUGAAA [Zipper 23 - 9] (puzzle: Sensor for hsa-mir-208a) | 13 | – | – | – | 132 | 1390 |
| AGCUAUCGAAAACGAUAGCAAAAGCAUGUACAUGAGGAUCACCCAUGUCAUGUACAAGCUUUUUGCUCGUUUUAAAA [Zipper 23 - 15] (puzzle: Sensor for hsa-mir-208a) | 37.8 | – | – | – | 20.1 | 52.5 |
| AGCUAUCGCGUACGAUAGCUGAAGCAUGUACAUGAGGAUCACCCAUGUCAUGUACAGGCUUUUUGCUCGUCUUAUUG [JL-shm-2.27 JL mod] (puzzle: Sensor for hsa-mir-208a) | 16.4 | – | – | – | 770 | 625 |
| AGCUAUUAAUCAGGAUAUAGGGACAUGAGGAUCACCCAUGUGUACAUGAGUAAAUGUGAUCACGUCUAGAAGGGAUUACUAACA [SameState NG2 #38] (Eterna round: R96, puzzle: Same State NG 2) | – | 184 | 92.9 | 133 | – | – |
| AGCUAUUAAUCAGGAUAUAGUGACAUGAGGAUCACCCAUGUAUUGAUGAUUAAAUGUGGUCACCACUAGAAGGGAUUACUAACA [SameState NG2 #48] (Eterna round: R96, puzzle: Same State NG 2) | – | 23.2 | 23.8 | 26.9 | – | – |
| AGCUAUUAAUCAGGAUAUAGUGACAUGAGGAUCACCCAUGUAUUGAUGAUUAAAUGUGGUCGCCGCUAGAAGGGAUUACUAACA [SameState NG2 #46] (Eterna round: R96, puzzle: Same State NG 2) | – | 35.2 | 23.2 | 30.7 | – | – |
| AGCUAUUAAUCAGGAUAUGGUCACAUGAGGAUCACCCAUGUAUAGAUGAUUGAAUGUGGUCUAAACUAGAAGGGAUUGCUAACA [SameState NG2 #57] (Eterna round: R96, puzzle: Same State NG 2) | – | 971 | 232 | 745 | – | – |
| AGCUAUUAAUCAGGAUAUGGUGACAUGAGGAUCACCCAUGUAUAGAUGAUUAAAUGUGGUCUAAACUAGAAGGGAUUGCUAACA [SameState NG2 #55] (Eterna round: R96, puzzle: Same State NG 2) | – | 214 | 247 | 219 | – | – |
| AGGAAGGAGACUGAGGAUAUCGUUGAGAGGACAUGAGGAUCACCCAUGUGUAUAGGAUUGGAGAACGAGAAGGCAGAGGAGUGGG [JR_SS2_Sub047] (puzzle: Same State 2) | 76.2 | – | – | – | 58 | 101 |

| Sequence | apparent KD of MS2 coat protein [1] [nM] | apparent KD of MS2 coat protein (input ligand: FMN 200 uM) [nM] | apparent KD of MS2 coat protein [2] [nM] | apparent KD of MS2 coat protein (input ligand: none) [nM] | apparent KD of MS2 coat protein [3] [nM] | apparent KD of MS2 coat protein [4] [nM] |
| --- | --- | --- | --- | --- | --- | --- |
| AGGCUCAGACGAGGAUAUACGUGGUCACAUGAGGAUCACCCAUGUCUCGAGCUUCGGCUCGAGGCGUAGAAGGUGUCUGAGCCA [SSNG2/6-C1] (Eterna round: R96, puzzle: Same State NG 2) | – | 195 | 406 | 609 | – | – |
| AGGCUCAGACGAGGAUAUAUGCGAUCACAUGAGGAUCACCCAUGUCUCGAGCUUCGGCUCGAGGCAUAGAAGGCGUCUGAGCCA [SSNG2/4-A1] (Eterna round: R96, puzzle: Same State NG 2) | – | 16.4 | 31.2 | 38.4 | – | – |
| AGGCUCAGACGAGGAUAUAUGUCUCGAGCUUCGGCUCGAGACAUGAGGAUCACCCAUGUAAUAACAUAGAAGGUGUCUGAGCCA [SSNG2/1-C1] (Eterna round: R96, puzzle: Same State NG 2) | – | 49.1 | 208 | 253 | – | – |
| AGGCUCAGACGAGGAUAUAUGUGAUCACAUGAGGAUCACCCAUGUCUCGAGCUUCGGCUCGAGACAUAGAAGGUGUCUGAGCCA [SSNG2/3-C1] (Eterna round: R96, puzzle: Same State NG 2) | – | 76.4 | 3.03 | 32.3 | – | – |
| AGGCUCAGACGAGGAUAUGAUCAUGGCGCUUCGGCGCAUACAUGAGGAUCACCCAUGUAGGGUGAUCAGAAGGUGUCUGAGCCA [SSNG2/8-B1] (Eterna round: R96, puzzle: Same State NG 2) | – | 92.1 | 505 | 1210 | – | – |
| AGGCUCAGACUAGGAUAUAUGCGAUCACAUGAGGAUCACCCAUGUCUCGAGCUUCGGCUCGAGGCAUAGAAGGAGUCUGAGCCA [SSNG2/4-D1] (Eterna round: R96, puzzle: Same State NG 2) | – | 17.1 | 30.8 | 57 | – | – |
| AGGCUCAGAGCAGGAUAUAUGUAAUAACAUGAGGAUCACCCAUGUGUCGAGCUUCGGCUCGACACAUAGAAGGGCUCUGAGCCA [SSNG2/2-B1] (Eterna round: R96, puzzle: Same State NG 2) | – | 16.9 | 28.8 | 45.9 | – | – |
| AGGCUCGUGCUAGGAUAUCUAGGAUAUGGACGAGGAUUACCCGAGCAGCAUUAGCGCACCAGAGGAGAGAAGGAGCGACAUGCG [pwkr ssNG2 2F5 2FMN.11] (Eterna round: R96, puzzle: Same State NG 2) | – | 5.78 | 4.91 | 16 | – | – |
| AGGGAGGAAGCUGAGGAUAUCGUAAGGAGGACAUGAGGAUCACCCAUGUGUGUAGAAUUGGAGGACGAGAAGGCAGAGGAGUGGG [JR_SS2_Sub053] (puzzle: Same State 2) | 21.3 | – | – | – | 34 | 37 |
| AGGUAACAUGAGGAUCACCCAUGUAAGGUGAACGUAGGAUAUCGAGGAGGUAGGGUAGGCCGAGAAGGACGAGGAG [JR_SS1_Sub093] (puzzle: Same State 1) | 221 | – | – | – | – | – |
| AGGUGGUGUGGAAAGGAUAUACGGUUGAGGACAUGAGGAUCACCCAUGUGGUAGAGGACGUAAGGGUAGAAGGUUCGGGAUUGGU [JR_SS@_Sub022] (puzzle: Same State 2) | 36.5 | – | – | – | 41.2 | 41.7 |
| AGUAGUGUAACAUGAGGAUCACCCAUGUAAGUAGAUGUAACCUAGGAUAUGGAUGAUAUGUUAGUCCAGAAGGAGGAUUGUUUA [JR_SSNG3_Sub038] (Eterna round: R96, puzzle: Same State NG 3) | – | 20.6 | 36.7 | 34.8 | – | – |
| AGUCAAGACAUGAGGAUCACCCAUGUUGGGAACAUGGAGGACGAGGAUAUGUGUCGAUAUGUGACGUAGAAGGCGUCAGACAAA [Eternabot solution 33] (Eterna round: R96, puzzle: Same State NG 3) | – | 189 | 224 | 419 | – | – |
| AGUCCAGCAUAAGCUGGACAAAAGCAUGUACAUGAGGAUCACCCAUGUUCAUGUACAAGCUUUUUGCAAGUCAAAAU [Mat - hsa-mir-208a - Mod of JL - 82] (puzzle: Sensor for hsa-mir-208a) | 18 | – | – | – | 374 | 734 |
| AGUCCAGCCAAAGCUGGACAAAAGCAUGUACAUGAGGAUCACCCAUGUUCAUGUACAAGCUUUUUGCAAGUCAAAAU [Mat - hsa-mir-208a - Mod of JL - 78] (puzzle: Sensor for hsa-mir-208a) | 17.1 | – | – | – | 542 | 433 |
